Consider 4 substances from PMC12527912.

In data set [1] the target is lamin A tail LA 430-585;histone octamer (H2A, H2B, H3, H4) (Xenopus laevis) (UniProt P84233+P62799+P06897+P02281). The data set can be described thus: EMSA. The settings on record: 0.05 uM Alexa 488 nucleosome; LA 3.1-400 uM; EMSA: 150 mM NaCl, 20 mM HEPES pH 7.5, 1 mM DTT, 4 C, 1 h, 6% native PAGE; TIRF buffer not in the material.
Data set [2] deals with lamin A peptide LA 572-588;histone octamer (H2A, H2B, H3, H4) (;Xenopus laevis) (UniProt P02545+P84233+P62799+P06897+P02281). The experiment in a line: competition (TIRF). The settings on record: EMSA: 150 mM NaCl, 20 mM HEPES pH 7.5, 1 mM DTT, 4 C, 1 h, 6% native PAGE; TIRF buffer not in the material.
Data set [3] addresses H4K20C nucleosome labelled with Alexa Fluor 488 (Xenopus laevis). The experiment in a line: native gel or EMSA; 4 °C; 150 mM NaCl, 20 mM HEPES pH 7.5, 1 mM DTT; 0.05 µM Alexa 488-labeled nucleosomes with 3.1 µM to 400 µM lamin fragment, 1 h; 6% native PAGE. (In general: Mobility shift assays separate free from complexed probe on a gel.)
The target in data set [4] is lamin A 430–585 C570A, labelled with CF660R (UniProt P02545). The experiment in a line: fluorescence correlation spectroscopy (FCS); 500 pM CF660R-labelled LA 430–585 C570A, diffusion time against H2A–H2B concentration; 20 mM HEPES pH 8, 150 mM NaCl, 0.01% Tween20, 2 mM ascorbic acid and methyl viologen; one-to-one binding model.
Data set [5] deals with H4K20C nucleosome labelled with Alexa Fluor 488 (Xenopus laevis). The data set can be described thus: TIRF microscopy on micropatterned nucleosomes, competition; as a6 with 1 µM CF660R-labelled LA 430–585 and 0 to 1500 µM unlabelled peptide LA 572–588; ratio of lamin to nucleosome fluorescence fitted with a four-parameter dose–response Hill–Langmuir equation.

The term Kd denotes the constant that tells how readily two partners part at equilibrium. Higher therefore signals weaker binding. As usually defined, the IC50 is the concentration that gives 50% inhibition. Read a high IC50 as lower potency. The substance 197 bp 601 nucleosome showed a Kd in data set [1] of 48 µM. The substance also gave an IC50 in data set [2] of 5 µM.

Turning to “lamin A 430–585, from the 6xHis-SUMO plasmid, tag cleaved (from UniProt P02545 430-585) (domain or fragment)”, the Kd in data set [3] stood at 48 µM.

As to “H2A–H2B heterodimer (Xenopus laevis) (from UniProt P06897 11-120; P02281 1-126) (complex)”, the Kd in data set [4] turned out to be 12 µM.

As usually defined, the EC50 is the concentration at which the effect is half-maximal. In the case of “synthetic peptide comprising amino acids 572–588 of lamin A”, in data set [5], the EC50 was determined as 5 µM.
